T1: FcgRIIb (human, UniProt P31994 43-217)
T1 construct: extracellular domain; also called FcγRIIb; 2b; not shown: His tag attached to the C terminus
T1 sequence (looked up): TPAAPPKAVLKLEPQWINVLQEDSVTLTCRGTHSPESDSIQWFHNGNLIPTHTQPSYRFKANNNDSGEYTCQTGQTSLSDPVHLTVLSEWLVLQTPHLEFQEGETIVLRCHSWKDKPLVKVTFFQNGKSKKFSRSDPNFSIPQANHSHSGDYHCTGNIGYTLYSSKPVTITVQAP

T2: FcgRIIaH (human, UniProt P12318 34-217)
T2 construct: extracellular domain; also called FcγRIIa H; FcgRIIa type H; not shown: His tag attached to the C terminus
T2 sequence (looked up): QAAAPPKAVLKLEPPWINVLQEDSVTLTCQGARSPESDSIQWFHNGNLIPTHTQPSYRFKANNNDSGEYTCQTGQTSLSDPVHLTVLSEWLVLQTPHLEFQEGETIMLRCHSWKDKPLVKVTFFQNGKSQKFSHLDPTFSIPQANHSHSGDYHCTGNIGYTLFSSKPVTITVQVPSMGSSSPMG

T3: FcgRIIaR (human, UniProt P12318 34-217)
T3 construct: extracellular domain; also called FcγRIIa R; FcgRIIa type R; not shown: His tag attached to the C terminus
T3 sequence (looked up): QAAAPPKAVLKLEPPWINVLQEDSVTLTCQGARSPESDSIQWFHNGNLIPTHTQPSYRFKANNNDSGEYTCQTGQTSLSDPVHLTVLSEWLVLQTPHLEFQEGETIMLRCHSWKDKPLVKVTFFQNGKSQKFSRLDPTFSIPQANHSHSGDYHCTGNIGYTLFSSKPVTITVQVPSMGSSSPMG


Assays:
FcγRIIb = FcγRIIb (human, UniProt P31994 43-217); test: SPR (Biacore), KD
FcγRIa = FcγRIa (human, UniProt P12314 16-292); test: SPR (Biacore 4000)
Sequence of FcγRIa (P12314 16-292): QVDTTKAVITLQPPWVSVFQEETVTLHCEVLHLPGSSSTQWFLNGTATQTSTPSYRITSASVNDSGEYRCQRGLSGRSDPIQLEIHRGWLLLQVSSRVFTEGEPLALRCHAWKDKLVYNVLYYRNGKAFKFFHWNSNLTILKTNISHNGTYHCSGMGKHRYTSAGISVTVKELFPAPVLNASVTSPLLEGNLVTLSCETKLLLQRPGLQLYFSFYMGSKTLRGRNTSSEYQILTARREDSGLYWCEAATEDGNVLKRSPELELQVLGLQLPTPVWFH

FcgRIIb = molecular target: T1, FcgRIIb; test: SPR (Biacore); KD of H240-Kn033/H240-Hl033/L73-k0 divided by KD of the variant
FcgRIIIaF = molecular target: T4, FcgRIIIaF (human, UniProt P08637 17-208); test: as above
T4 construct: extracellular domain; also called FcγRIIIa F; 3aF; not shown: His tag attached to the C terminus
T4 sequence (P08637 17-208): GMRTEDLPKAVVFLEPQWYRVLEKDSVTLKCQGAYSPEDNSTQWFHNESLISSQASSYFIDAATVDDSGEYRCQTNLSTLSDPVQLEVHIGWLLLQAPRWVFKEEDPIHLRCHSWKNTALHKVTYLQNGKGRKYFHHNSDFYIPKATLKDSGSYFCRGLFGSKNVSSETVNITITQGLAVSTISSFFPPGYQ

FcgRIIaH = molecular target: T2, FcgRIIaH; test: as above
FcgRIIIaV = molecular target: T5, FcgRIIIaV (human, UniProt P08637 17-208); test: as above
T5 construct: extracellular domain; also called FcγRIIIa V; 3aV; not shown: His tag attached to the C terminus
T5 sequence (P08637 17-208 F176V limits assumed): as the sequence (P08637 17-208) above, with F160V counted along it

FcgRIIaR = molecular target: T3, FcgRIIaR; test: as above
FcγRIIIa = molecular target: T6, FcγRIIIa (human, UniProt P08637 17-208); test: SPR (Biacore); KD of GpH7-TA7/GpH7-B78/GpL16-k0 for FcγRIIIa divided by the KD of this antibody (this row is the reference itself)
T6 construct: extracellular domain; Soluble extracellular domain with a C-terminal His tag, expressed in FreeStyle293 cells and used as the analyte in Biacore; also called FcgRIIIa; CD16A; not shown: His tag attached to the C terminus
T6 sequence (P08637 17-208): as the sequence (P08637 17-208) above
Protocol: The prepared antibodies were compared for the FcγRIIIa-binding activity using, as an indicator, KD for FcγRIIIa that was determined according to the method described in Reference Example 2.
Analysis of interaction between objective antibody and the FcγR was carried out using Biacore T100 (GE Healthcare). HBS-EP+ (GE Healthcare) was used as the running buffer, and the measurement temperature was set to 25° C. Chips produced by immobilizing the antigen peptide by the amine coupling method to a Series S Sencor Chip CM5 (GE Healthcare), or alternatively, chips produced by allowing preliminarily biotinylated antigen peptides to interact with and immobilize onto a Series S Sensor Chip SA (certified) (GE Healthcare) were used. Antibodies of interest were captured onto an antigen peptide-immobilized chip, and allowed to interact to each FcγR diluted with running buffer. To regenerate and repeatedly use the chip, the antibodies captured on the chip were washed off by reacting 10 mM glycine-HCl, pH 1.5.
Specifically, to calculate association rate constant ka (L/mol/s) and dissociation rate constant kd (1/s), sensorgrams obtained by measurement were processed for global fitting by Biacore Evaluation Software using 1:1 Langmuir binding model and dissociation constant KD (mol/1) was calculated from the resulting values.

fold 2b (FcgRIIb) [fold]	fold 3aF (FcgRIIIaF) [fold]	fold 2aH (FcgRIIaH) [fold]	fold 3aV (FcgRIIIaV) [fold]	fold 2aR (FcgRIIaR) [fold]	Binder	further results
–	–	–	–	–	H240-Kn120/H240-Hl068/L73-k0 (antibody, human IgG1, kappa, S239M introduced into H240-Kn067) heavy 1: QDQLVQSGAEVKKPGASVKVSCKASGFNIKDTYIQWVRQAPGQGLEWMGRIDPLRKQTKYREKFEGRVTITADTSTNTAYMELSSLRSEDTAVYYCVRSGREFDYWGQGTLVTVSSASTKGPSVFPLAPSSKSTSGGTAALGCLVKDYFPEPVTVSWNSGALTSGVHTFPAVLQSSGLYSLSSVVTVPSSSLGTQTYICNVNHKPSNTKVDKKVEPKSCDKTHTCPPCPAPEYYWGPMVFLFPPKPKDTLMISRTPEVTCVVVDVSDEDPEVKFNWYVDGVEVHNAKTKPREEQYNATYRVVSVLTVLHQDWLNGKEYKCKVSNKDLPAPIEKTISKAKGQPREPQVCTLPPSRDELTKNQVSLWCLVKGFYPSDIAVEWESNGQPENNYKTTPPVLDSDGSFFLYSKLTVDKSRWQQGNVFSCSVMHEALHNHYTQKSLSLSP heavy 2: QDQLVQSGAEVKKPGASVKVSCKASGFNIKDTYIQWVRQAPGQGLEWMGRIDPLRKQTKYREKFEGRVTITADTSTNTAYMELSSLRSEDTAVYYCVRSGREFDYWGQGTLVTVSSASTKGPSVFPLAPSSKSTSGGTAALGCLVKDYFPEPVTVSWNSGALTSGVHTFPAVLQSSGLYSLSSVVTVPSSSLGTQTYICNVNHKPSNTKVDKKVEPKSCDKTHTCPPCPAPELLGGPSVFLFPPKPKDTLMISRTPEVTCVVVDVSHEEPEVKFNWYVDGVEVHNAKTKPREEQYNSTYRVVSVLTVLHQDWLNGKEYKCKVSNDALPKPIEETISKAKGQPREPQVYTLPPSRCELTKNQVSLSCAVKGFYPSDIAVEWESNGQPENNYKTTPPVLDSDGSFFLVSKLTVDKSRWQQGNVFSCSVMHEALHNHYTQKSLSLSP light: DIQMTQSPSSLSASVGDRVTITCRASQDIHKYIAWYQQKPGQAPRLLIQYTSTLQPGVPSRFSGSGSGTDYTFTISSLQPEDIATYYCLQYEQLRTFGGGTKVEIKRTVAAPSVFIFPPSDEQLKSGTASVVCLLNNFYPREAKVQWKVDNALQSGNSQESVTEQDSKDSTYSLSSTLTLSKADYEKHKVYACEVTHQGLSSPVTKSFNRGEC	fold FcgRIIb-binding activity against native IgG1 (FcγRIIb): ~50 times
–	–	–	–	–	H240-Kn120/H240-Hl073/L73-k0 (antibody, human IgG1, kappa, G236S introduced into H240-Hl068; also called H240-Kn120/H240-HI073/L73-k0) heavy 1: QDQLVQSGAEVKKPGASVKVSCKASGFNIKDTYIQWVRQAPGQGLEWMGRIDPLRKQTKYREKFEGRVTITADTSTNTAYMELSSLRSEDTAVYYCVRSGREFDYWGQGTLVTVSSASTKGPSVFPLAPSSKSTSGGTAALGCLVKDYFPEPVTVSWNSGALTSGVHTFPAVLQSSGLYSLSSVVTVPSSSLGTQTYICNVNHKPSNTKVDKKVEPKSCDKTHTCPPCPAPEYYWGPMVFLFPPKPKDTLMISRTPEVTCVVVDVSDEDPEVKFNWYVDGVEVHNAKTKPREEQYNATYRVVSVLTVLHQDWLNGKEYKCKVSNKDLPAPIEKTISKAKGQPREPQVCTLPPSRDELTKNQVSLWCLVKGFYPSDIAVEWESNGQPENNYKTTPPVLDSDGSFFLYSKLTVDKSRWQQGNVFSCSVMHEALHNHYTQKSLSLSP heavy 2: QDQLVQSGAEVKKPGASVKVSCKASGFNIKDTYIQWVRQAPGQGLEWMGRIDPLRKQTKYREKFEGRVTITADTSTNTAYMELSSLRSEDTAVYYCVRSGREFDYWGQGTLVTVSSASTKGPSVFPLAPSSKSTSGGTAALGCLVKDYFPEPVTVSWNSGALTSGVHTFPAVLQSSGLYSLSSVVTVPSSSLGTQTYICNVNHKPSNTKVDKKVEPKSCDKTHTCPPCPAPELLSGPSVFLFPPKPKDTLMISRTPEVTCVVVDVSHEEPEVKFNWYVDGVEVHNAKTKPREEQYNSTYRVVSVLTVLHQDWLNGKEYKCKVSNDALPKPIEETISKAKGQPREPQVYTLPPSRCELTKNQVSLSCAVKGFYPSDIAVEWESNGQPENNYKTTPPVLDSDGSFFLVSKLTVDKSRWQQGNVFSCSVMHEALHNHYTQKSLSLSP light: DIQMTQSPSSLSASVGDRVTITCRASQDIHKYIAWYQQKPGQAPRLLIQYTSTLQPGVPSRFSGSGSGTDYTFTISSLQPEDIATYYCLQYEQLRTFGGGTKVEIKRTVAAPSVFIFPPSDEQLKSGTASVVCLLNNFYPREAKVQWKVDNALQSGNSQESVTEQDSKDSTYSLSSTLTLSKADYEKHKVYACEVTHQGLSSPVTKSFNRGEC	koff (FcγRIa): < 5e-05 s⁻¹
1	1	1	1	1	H240-Kn033/H240-Hl033/L73-k0 (antibody, human IgG1, kappa, Anti-epiregulin IgG1 with only knobs-into-holes alterations) heavy 1: not shown heavy 2: not shown light: DIQMTQSPSSLSASVGDRVTITCRASQDIHKYIAWYQQKPGQAPRLLIQYTSTLQPGVPSRFSGSGSGTDYTFTISSLQPEDIATYYCLQYEQLRTFGGGTKVEIKRTVAAPSVFIFPPSDEQLKSGTASVVCLLNNFYPREAKVQWKVDNALQSGNSQESVTEQDSKDSTYSLSSTLTLSKADYEKHKVYACEVTHQGLSSPVTKSFNRGEC	–
1.3	3.7	0.7	7	1.5	H240-afucosyl_G1d/L73-k0 (antibody, human IgG1, kappa, afucosylated: fucose removed from the sugar chain of H240-G1d, also called afucosylated antibody) heavy: not shown light: DIQMTQSPSSLSASVGDRVTITCRASQDIHKYIAWYQQKPGQAPRLLIQYTSTLQPGVPSRFSGSGSGTDYTFTISSLQPEDIATYYCLQYEQLRTFGGGTKVEIKRTVAAPSVFIFPPSDEQLKSGTASVVCLLNNFYPREAKVQWKVDNALQSGNSQESVTEQDSKDSTYSLSSTLTLSKADYEKHKVYACEVTHQGLSSPVTKSFNRGEC	–
–	–	–	–	–	GpH7-TA7/GpH7-B78/GpL16-k0 (antibody, human IgG1, kappa, Heterodimerized anti-glypican-3 IgG1 antibody with two different H chains (same variable region GpH7) and a common L chain; also called TA7/B78) heavy 1: QVQLVQSGAEVKKPGASVTVSCKASGYTFTDYEMHWIRQPPGEGLEWIGAIDPKTGDTAYSESFQDRVTLTADKSTSTAYMELSSLTSEDTAVYYCTRFYSYTYWGQGTLVTVSSASTKGPSVFPLAPSSKSTSGGTAALGCLVKDYFPEPVTVSWNSGALTSGVHTFPAVLQSSGLYSLSSVVTVPSSSLGTQTYICNVNHKPSNTKVDKKVEPKSCDKTHTCPPCPAPEYLWGPSVFLFPPKPKDTLMISRTPEVTCVVVDVSHEDPEVKFNWYVDGVEVHNAKTKPREEQYNATYRVVSVLTVLHQDWLNGKEYKCKVSNKALPAPIEKTISKAKGQPREPQVYTLPPSRKELTKNQVSLTCLVKGFYPSDIAVEWESNGQPENNYKTTPPVLDSDGSFFLYSKLTVDKSRWQQGNVFSCSVMHEALHNRYTQKSLSLSP heavy 2: QVQLVQSGAEVKKPGASVTVSCKASGYTFTDYEMHWIRQPPGEGLEWIGAIDPKTGDTAYSESFQDRVTLTADKSTSTAYMELSSLTSEDTAVYYCTRFYSYTYWGQGTLVTVSSASTKGPSVFPLAPSSKSTSGGTAALGCLVKDYFPEPVTVSWNSGALTSGVHTFPAVLQSSGLYSLSSVVTVPSSSLGTQTYICNVNHKPSNTKVDKKVEPKSCDKTHTCPPCPAPELLGGPDVFLFPPKPKDTLMISRTPEVTCVVVDVSHEDPEVKFNWYVDGVEVHNAKTKPREEQYNSTYRVVSVLTVLHQDWLNGKEYKCKVSNKALPLPEEKTISKAKGQPREPQVYTLPPSRDELTKNQVSLTCLVKGFYPSDIAVEWESNGQPENNYKTTPPVLDSDGSFFLYSKLTVDKSRWQQGNVFSCSVMHEALHNHYTQESLSLSP light: DIVMTQSPLSLPVTPGEPASISCQASESLVHSNRNTYLHWYLQKPGQSPQLLIYKVSNRFSGVPDRFSGSGSGTDFTLKISRVEAEDVGVYYCSQNTHVPPTFGQGTKVEIERTVAAPSVFIFPPSDEQLKSGTASVVCLLNNFYPREAKVQWKVDNALQSGNSQESVTEQDSKDSTYSLSSTLTLSKADYEKHKVYACEVTHQGLSSPVTKSFNRGEC	KD ratio (FcγRIIIa): 1

Source: patent US20150344570A1 (published 2015)
